B1: Uncharacterized protein C12orf50 (Homo sapiens), Q8NA57 (parent)
chain: MEMQQNCSISCFWETQPLGCVKISCIFYHSKPRNINGLFLPPSSNITLQKEIQEGIPLQSQSQEPLKPQENISRPIHHPLVLKTNFEEEEEVDEQNDASSLWTKTPEEIEEKRAIKEMCYKSGEYYRFHTPPDILSSKSMTPTAEKQLEKPLENGSELQEGDSLTVPTKLSQYERQGEIKTSLHGKPKTDIAAFENGGGDCYVPQRVIFLGVDESEALTEEKEITISKCSNTKDNKDSPHPKHSLTTRLVPTTHVLNATENISMKCREDPSSMNDVQPVKKPHFKGVKKRKWIYDEPQNFPNSGMQRAVQAPRPQNKMSYHRNNKNRNAENASYIHVQRDAVRTVALNAPSRSRPTHGSYNKVHANREPKPNLSPDKYTSTSYNDSAWRKRIPFSKTYSKSEKIYPEPRRNGSK
partner: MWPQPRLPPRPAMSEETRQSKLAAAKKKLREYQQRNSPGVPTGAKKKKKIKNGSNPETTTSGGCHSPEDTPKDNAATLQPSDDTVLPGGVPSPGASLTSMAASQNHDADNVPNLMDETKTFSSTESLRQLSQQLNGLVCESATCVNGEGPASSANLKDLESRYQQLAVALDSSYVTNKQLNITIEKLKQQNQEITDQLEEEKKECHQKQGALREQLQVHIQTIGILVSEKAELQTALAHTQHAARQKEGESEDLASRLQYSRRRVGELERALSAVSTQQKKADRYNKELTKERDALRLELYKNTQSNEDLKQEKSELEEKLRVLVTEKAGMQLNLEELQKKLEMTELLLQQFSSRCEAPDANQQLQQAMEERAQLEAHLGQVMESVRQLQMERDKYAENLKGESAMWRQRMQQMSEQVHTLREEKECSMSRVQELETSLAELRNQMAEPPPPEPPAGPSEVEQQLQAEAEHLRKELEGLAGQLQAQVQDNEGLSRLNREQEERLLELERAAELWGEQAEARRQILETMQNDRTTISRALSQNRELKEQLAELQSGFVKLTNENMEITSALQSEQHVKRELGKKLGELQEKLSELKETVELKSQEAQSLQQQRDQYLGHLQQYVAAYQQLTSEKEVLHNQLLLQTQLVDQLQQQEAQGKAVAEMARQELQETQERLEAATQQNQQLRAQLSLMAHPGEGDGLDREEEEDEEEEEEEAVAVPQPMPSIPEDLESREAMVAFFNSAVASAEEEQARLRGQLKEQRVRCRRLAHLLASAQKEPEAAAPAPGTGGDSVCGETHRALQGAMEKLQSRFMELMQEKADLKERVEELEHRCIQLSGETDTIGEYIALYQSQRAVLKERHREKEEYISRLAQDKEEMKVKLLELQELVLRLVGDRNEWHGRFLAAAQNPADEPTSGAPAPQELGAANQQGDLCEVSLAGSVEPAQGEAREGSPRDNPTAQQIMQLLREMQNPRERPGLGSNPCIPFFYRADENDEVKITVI
B2: Cytosolic 5'-nucleotidase 1A (Homo sapiens), Q9BXI3 (parent)
chain: MEPGQPREPQEPREPGPGAETAAAPVWEEAKIFYDNLAPKKKPKSPKPQNAVTIAVSSRALFRMDEEQQIYTEQGVEEYVRYQLEHENEPFSPGPAFPFVKALEAVNRRLRELYPDSEDVFDIVLMTNNHAQVGVRLINSINHYDLFIERFCMTGGNSPICYLKAYHTNLYLSADAEKVREAIDEGIAAATIFSPSRDVVVSQSQLRVAFDGDAVLFSDESERIVKAHGLDRFFEHEKAHENKPLAQGPLKGFLEALGRLQKKFYSKGLRLECPIRTYLVTARSAASSGARALKTLRSWGLETDEALFLAGAPKGPLLEKIRPHIFFDDQMFHVAGAQEMGTVAAHVPYGVAQTPRRTAPAKQAPSAQ
B3: KAT8 regulatory NSL complex subunit 1 (Homo sapiens), Q7Z3B3 (parent)
chain: MAAMAPALTDAAAEAHHIRFKLAPPSSTLSPGSAENNGNANILIAANGTKRKAIAAEDPSLDFRNNPTKEDLGKLQPLVASYLCSDVTSVPSKESLKLQGVFSKQTVLKSHPLLSQSYELRAELLGRQPVLEFSLENLRTMNTSGQTALPQAPVNGLAKKLTKSSTHSDHDNSTSLNGGKRALTSSALHGGEMGGSESGDLKGGMTNCTLPHRSLDVEHTTLYSNNSTANKSSVNSMEQPALQGSSRLSPGTDSSSNLGGVKLEGKKSPLSSILFSALDSDTRITALLRRQADIESRARRLQKRLQVVQAKQVERHIQHQLGGFLEKTLSKLPNLESLRPRSQLMLTRKAEAALRKAASETTTSEGLSNFLKSNSISEELERFTASGIANLRCSEQAFDSDVTDSSSGGESDIEEEELTRADPEQRHVPLRRRSEWKWAADRAAIVSRWNWLQAHVSDLEYRIRQQTDIYKQIRANKGLIVLGEVPPPEHTTDLFLPLSSEVKTDHGTDKLIESVSQPLENHGAPIIGHISESLSTKSCGALRPVNGVINTLQPVLADHIPGDSSDAEEQLHKKQRLNLVSSSSDGTCVAARTRPVLSCKKRRLVRPNSIVPLSKKVHRNSTIRPGCDVNPSCALCGSGSINTMPPEIHYEAPLLERLSQLDSCVHPVLAFPDDVPTSLHFQSMLKSQWQNKPFDKIKPPKKLSLKHRAPMPGSLPDSARKDRHKLVSSFLTTAKLSHHQTRPDRTHRQHLDDVGAVPMVERVTAPKAERLLNPPPPVHDPNHSKMRLRDHSSERSEVLKHHTDMSSSSYLAATHHPPHSPLVRQLSTSSDSPAPASSSSQVTASTSQQPVRRRRGESSFDINNIVIPMSVAATTRVEKLQYKEILTPSWREVDLQSLKGSPDEENEEIEDLSDAAFAALHAKCEEMERARWLWTTSVPPQRRGSRSYRSSDGRTTPQLGSANPSTPQPASPDVSSSHSLSEYSHGQSPRSPISPELHSAPLTPVARDTPRHLASEDTRCSTPELGLDEQSVQPWERRTFPLAHSPQAECEDQLDAQERAARCTRRTSGSKTGRETEAAPTSPPIVPLKSRHLVAAATAQRPTHR
B4: Zinc finger protein Aiolos (Homo sapiens), Q9UKT9 (parent)
chain: MEDIQTNAELKSTQEQSVPAESAAVLNDYSLTKSHEMENVDSGEGPANEDEDIGDDSMKVKDEYSERDENVLKSEPMGNAEEPEIPYSYSREYNEYENIKLERHVVSFDSSRPTSGKMNCDVCGLSCISFNVLMVHKRSHTGERPFQCNQCGASFTQKGNLLRHIKLHTGEKPFKCHLCNYACQRRDALTGHLRTHSVEKPYKCEFCGRSYKQRSSLEEHKERCRTFLQSTDPGDTASAEARHIKAEMGSERALVLDRLASNVAKRKSSMPQKFIGEKRHCFDVNYNSSYMYEKESELIQTRMMDQAINNAISYLGAEALRPLVQTPPAPTSEMVPVISSMYPIALTRAEMSNGAPQELEKKSIHLPEKSVPSERGLSPNNSGHDSTDTDSNHEERQNHIYQQNHMVLSRARNGMPLLKEVPRSYELLKPPPICPRDSVKVINKEGEVMDVYRCDHCRVLFLDYVMFTIHMGCHGFRDPFECNMCGYRSHDRYEFSSHIARGEHRALLK
partner: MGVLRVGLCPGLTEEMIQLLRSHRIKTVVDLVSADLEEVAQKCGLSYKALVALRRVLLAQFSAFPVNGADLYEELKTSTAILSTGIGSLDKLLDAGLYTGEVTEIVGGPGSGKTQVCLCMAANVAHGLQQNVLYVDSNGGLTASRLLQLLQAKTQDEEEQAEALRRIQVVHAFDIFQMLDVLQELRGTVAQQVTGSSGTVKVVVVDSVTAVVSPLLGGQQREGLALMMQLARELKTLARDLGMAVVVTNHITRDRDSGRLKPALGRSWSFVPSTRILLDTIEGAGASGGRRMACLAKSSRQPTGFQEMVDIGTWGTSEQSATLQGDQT
B5: Multifunctional procollagen lysine hydroxylase and glycosyltransferase LH3 (Homo sapiens), O60568 (parent)
chain: MTSSGPGPRFLLLLPLLLPPAASASDRPRGRDPVNPEKLLVITVATAETEGYLRFLRSAEFFNYTVRTLGLGEEWRGGDVARTVGGGQKVRWLKKEMEKYADREDMIIMFVDSYDVILAGSPTELLKKFVQSGSRLLFSAESFCWPEWGLAEQYPEVGTGKRFLNSGGFIGFATTIHQIVRQWKYKDDDDDQLFYTRLYLDPGLREKLSLNLDHKSRIFQNLNGALDEVVLKFDRNRVRIRNVAYDTLPIVVHGNGPTKLQLNYLGNYVPNGWTPEGGCGFCNQDRRTLPGGQPPPRVFLAVFVEQPTPFLPRFLQRLLLLDYPPDRVTLFLHNNEVFHEPHIADSWPQLQDHFSAVKLVGPEEALSPGEARDMAMDLCRQDPECEFYFSLDADAVLTNLQTLRILIEENRKVIAPMLSRHGKLWSNFWGALSPDEYYARSEDYVELVQRKRVGVWNVPYISQAYVIRGDTLRMELPQRDVFSGSDTDPDMAFCKSFRDKGIFLHLSNQHEFGRLLATSRYDTEHLHPDLWQIFDNPVDWKEQYIHENYSRALEGEGIVEQPCPDVYWFPLLSEQMCDELVAEMEHYGQWSGGRHEDSRLAGGYENVPTVDIHMKQVGYEDQWLQLLRTYVGPMTESLFPGYHTKARAVMNFVVRYRPDEQPSLRPHHDSSTFTLNVALNHKGLDYEGGGCRFLRYDCVISSPRKGWALLHPGRLTHYHEGLPTTWGTRYIMVSFVDP
partner: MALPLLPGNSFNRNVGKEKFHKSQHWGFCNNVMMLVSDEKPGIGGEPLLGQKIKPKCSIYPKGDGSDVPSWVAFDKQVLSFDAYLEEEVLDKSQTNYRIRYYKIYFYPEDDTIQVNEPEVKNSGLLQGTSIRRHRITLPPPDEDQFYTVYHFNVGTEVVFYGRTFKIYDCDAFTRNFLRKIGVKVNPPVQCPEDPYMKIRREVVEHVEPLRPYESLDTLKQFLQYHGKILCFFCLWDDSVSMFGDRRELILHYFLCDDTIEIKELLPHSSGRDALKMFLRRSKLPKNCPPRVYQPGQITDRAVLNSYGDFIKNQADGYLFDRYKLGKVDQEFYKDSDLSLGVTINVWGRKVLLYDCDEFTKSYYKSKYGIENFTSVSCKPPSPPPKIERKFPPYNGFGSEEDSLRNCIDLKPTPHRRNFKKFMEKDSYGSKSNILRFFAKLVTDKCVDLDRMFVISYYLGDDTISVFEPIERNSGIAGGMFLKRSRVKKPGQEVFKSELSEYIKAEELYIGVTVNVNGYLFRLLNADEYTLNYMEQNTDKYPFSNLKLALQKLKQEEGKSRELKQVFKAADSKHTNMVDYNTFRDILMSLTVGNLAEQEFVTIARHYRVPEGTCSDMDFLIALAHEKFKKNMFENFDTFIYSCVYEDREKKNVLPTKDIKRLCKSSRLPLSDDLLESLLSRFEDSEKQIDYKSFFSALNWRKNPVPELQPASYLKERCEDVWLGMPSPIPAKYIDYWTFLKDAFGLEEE
B6: Protein FAM200C (Homo sapiens), Q8IZ13 (parent)
chain: MSKKRKWDDDYVRYWFTCTTEVDGTQRPQCVLCNSVFSNADLRPSKLSDHFNRQHGGVAGHDLNSLKHMPAPSDQSETLKAFGVASHEDTLLQASYQFAYLCAKEKNPHTVAEKLVKPCALEIAQIVLGPDAQKKLQQVPLSDDVIHSRIDEMSQDILQQVLEDIKASPLKVGIQLAETTDMDDCSQLMAFVRYIKEREIVEEFLFCEPLQLSMKGIDVFNLFRDFFLKHKIALDVCGSVCTDGASSMLGENSEFVAYVKKEIPHIVVTHCLLNPHALVIKTLPTKLRDALFTVVRVINFIKGRAPNHRLFQAFFEEIGIEYSVLLFHTEMRWLSRGQILTHIFEMYEEINQFLHHKSSNLVDGFENKEFKIHLAYLADLFKHLNELSASMQRTGMNTVSAREKLSAFVRKFPFWQKRIEKRNFTNFPFLEEIIVSDNEGIFIAAEITLHLQQLSNFFHGYFSIGDLNEASKWILDPFLFNIDFVDDSYLMKNDLAELRASGQILMEFETMKLEDFWCAQFTAFPNLAKTALEILMPFATTYLCELGFSSLLHFKTKSRSCFNLSDDIRVAISKKVPRFSDIIEQKLQLQQKSL

Variants of: B1
Settings: with goga2_human GOLGA2, Q08379

Variant | effect of a mutation on the interaction
Q306R | with no effect

Variants of: B2
Settings: with ntaq1_human NTAQ1, Q96HA8

Variant | effect of a mutation on the interaction
Y34C | with no effect

Variants of: B3
Settings: with cdr2_human CDR2, Q01850
Chain of cdr2_human CDR2, Q01850 (Q01850 whole entry): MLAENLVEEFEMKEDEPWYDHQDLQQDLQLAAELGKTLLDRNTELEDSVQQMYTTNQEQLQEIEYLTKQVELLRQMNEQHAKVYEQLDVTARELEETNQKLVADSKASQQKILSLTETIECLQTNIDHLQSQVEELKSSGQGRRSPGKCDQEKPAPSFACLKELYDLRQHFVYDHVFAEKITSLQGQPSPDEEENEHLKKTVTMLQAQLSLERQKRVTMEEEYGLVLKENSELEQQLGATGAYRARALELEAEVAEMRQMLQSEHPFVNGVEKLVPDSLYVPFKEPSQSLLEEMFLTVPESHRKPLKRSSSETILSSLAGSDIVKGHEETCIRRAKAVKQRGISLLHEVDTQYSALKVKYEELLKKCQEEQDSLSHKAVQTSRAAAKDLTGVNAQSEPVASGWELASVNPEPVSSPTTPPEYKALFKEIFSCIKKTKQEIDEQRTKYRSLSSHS

Variant | effect of a mutation on the interaction
N225D | with no effect
K104T | with no effect

Variants of: B3
Settings: with traf2_human TRAF2, Q12933
Chain of traf2_human TRAF2, Q12933 (Q12933 whole entry): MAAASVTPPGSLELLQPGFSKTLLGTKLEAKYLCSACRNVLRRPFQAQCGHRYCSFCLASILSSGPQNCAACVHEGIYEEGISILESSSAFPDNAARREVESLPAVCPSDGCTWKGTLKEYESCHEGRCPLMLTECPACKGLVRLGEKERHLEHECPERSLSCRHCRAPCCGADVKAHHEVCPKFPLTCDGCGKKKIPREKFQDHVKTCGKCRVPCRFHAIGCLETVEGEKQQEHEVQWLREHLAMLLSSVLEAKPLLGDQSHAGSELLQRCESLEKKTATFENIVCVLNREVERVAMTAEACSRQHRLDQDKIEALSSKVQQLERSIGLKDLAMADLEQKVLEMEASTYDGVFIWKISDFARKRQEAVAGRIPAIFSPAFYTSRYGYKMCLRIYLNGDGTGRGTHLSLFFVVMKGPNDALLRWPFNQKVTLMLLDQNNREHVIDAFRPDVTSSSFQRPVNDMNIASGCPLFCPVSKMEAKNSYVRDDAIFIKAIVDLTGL

Variant | effect of a mutation on the interaction
N225D | with no effect
K104T | with no effect

Variants of: B3
Settings: with KRT15, P19012
Chain of KRT15, P19012 (P19012 whole entry): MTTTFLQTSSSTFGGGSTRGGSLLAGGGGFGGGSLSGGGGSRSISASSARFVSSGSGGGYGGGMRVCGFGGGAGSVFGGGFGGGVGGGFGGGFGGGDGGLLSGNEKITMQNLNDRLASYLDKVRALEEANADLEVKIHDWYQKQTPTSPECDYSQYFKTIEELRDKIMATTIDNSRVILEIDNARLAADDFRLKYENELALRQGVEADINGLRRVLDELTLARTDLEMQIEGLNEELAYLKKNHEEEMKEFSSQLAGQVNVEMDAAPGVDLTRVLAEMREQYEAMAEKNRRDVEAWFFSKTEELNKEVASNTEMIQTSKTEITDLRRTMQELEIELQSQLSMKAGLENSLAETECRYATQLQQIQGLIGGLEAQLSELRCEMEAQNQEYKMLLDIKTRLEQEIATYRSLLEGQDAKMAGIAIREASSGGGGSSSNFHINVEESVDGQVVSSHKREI

Variant | effect of a mutation on the interaction
N225D | with no effect
K104T | with no effect

Variants of: B4
Settings: with ra51d_human RAD51D

Variant | effect of a mutation on the interaction
N119D | with no effect
A24V | with no effect

Variants of: B5
Settings: with efhc2_human EFHC2, Q5JST6

Variant | effect of a mutation on the interaction
A492V | disrupting interaction strength

Variants of: B6
Settings: with mt21a_human METTL21A

Variant | effect of a mutation on the interaction
M248K | disrupting interaction strength
